In US20250215089A1 (HARBOUR BIOMED SHANGHAI, published 2025):

Legend:
[1] = target: T1, human CD40 (human, UniProt P25942 21-277); test: FACS, Raji cells
T1 construct: whole, on cells; also called hCD40; TNFRSF5
Protocol: (§1) The cells were incubated at 4° C. for 1 hours in the dark. After the incubation, the cells were rinsed twice by adding pre-chilled PBS at 100 μL/well, and centrifuged at 500 g at 4° C. for 5 minutes, and the supernatant was discarded. Then, a fluorescent secondary antibody (goat anti-human IgG (H+L) secondary antibody, Alexa Fluor® 488 conjugate, Invitrogen, #A11013, 1:1000 dilution) was added at 100 μL/well, and the cells were incubated at 4° C. for 30 minutes in the dark. The cells were washed twice with pre-chilled PBS at 200 μL/well, and centrifuged at 500 g at 4° C. for 5 minutes, and the supernatant was discarded. Finally, the cells were resuspended in pre-chilled PBS at 200 μL/well. The fluorescence signal values were read using a BD FACS CANTOII flow cytometer or ACEA NovoCyte flow cytometer, and the data were processed and analyzed using FlowJo v10 software (FlowJo, LLC).

[2] = target: T1, human CD40; test: FACS, CHO-K1/hCD40 cells
Protocol: as §1

[3] = target: T1, human CD40; test: cell-based or functional assay
[4] = target: T2, cynomolgus monkey CD40 (cynomolgus monkey); test: FACS, CHO-K1/cyCD40 cells
T2 construct: whole, on cells; also called cyCD40
Protocol: as §1

[5] = target: T3, cynomolgus monkey PD-L1 (cynomolgus monkey); test: FACS, CHO-K1/cyPD-L1 cells
T3 construct: whole, on cells; also called cyPD-L1
Protocol: (§2) Specifically, the cells expressing PD-L1 were digested and resuspended in PBS buffer containing 2% BSA. The cells were adjusted to a cell density of 1×10⁶ cells/mL, respectively. The cells were seeded in a 96-well V-bottom plate (Corning, #3894) at 100 μL/well, and the antibody to be tested at 2×final concentration with 4-fold concentration gradient dilution was then added at 100 μL/well. The cells were incubated at 4° C. for 2 hours in the dark. After the incubation, the cells were rinsed twice by adding pre-chilled PBS containing 2% BSA at 100 μL/well, and centrifuged at 500 g at 4° C. for 5 minutes, and the supernatant was discarded. […] The cells were washed twice by adding pre-chilled PBS containing 2% BSA at 100 µL/well, and centrifuged at 500 g at 4° C. for 5 minutes, and the supernatant was discarded. Finally, the cells were resuspended in pre-chilled PBS buffer containing 2% BSA at 200 μL/well. The fluorescence signal values were read using a BD FACS CANTOII flow cytometer or ACEA NovoCyte flow cytometer, and the data were processed and analyzed using FlowJo v10 software (FlowJo, LLC).

[6] = target: T4, human PD-L1 (human, UniProt Q9NZQ7 19-290); test: cell-based or functional assay
[7] = target: T4, human PD-L1; test: FACS, CHO-K1/hPD-L1 cells
Protocol: as §2

[8] = target: T4, human PD-L1; test: FACS, NCI-H226 cells
Protocol: as §2

T1 sequence (P25942 21-277): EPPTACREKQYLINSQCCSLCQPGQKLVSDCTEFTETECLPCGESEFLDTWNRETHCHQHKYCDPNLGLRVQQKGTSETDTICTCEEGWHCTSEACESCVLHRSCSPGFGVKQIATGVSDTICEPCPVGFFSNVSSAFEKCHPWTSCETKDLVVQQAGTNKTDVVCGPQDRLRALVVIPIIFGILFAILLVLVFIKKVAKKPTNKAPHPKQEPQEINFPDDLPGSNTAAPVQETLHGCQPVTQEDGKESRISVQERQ
T4 sequence (Q9NZQ7 19-290): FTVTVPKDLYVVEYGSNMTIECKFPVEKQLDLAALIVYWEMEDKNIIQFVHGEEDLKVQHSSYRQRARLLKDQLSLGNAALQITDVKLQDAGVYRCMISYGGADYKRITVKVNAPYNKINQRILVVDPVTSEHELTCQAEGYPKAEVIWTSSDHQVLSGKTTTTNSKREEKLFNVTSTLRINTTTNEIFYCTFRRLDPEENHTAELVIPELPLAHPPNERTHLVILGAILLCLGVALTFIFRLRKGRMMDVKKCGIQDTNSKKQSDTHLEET

B1: PR007269 (bispecific antibody, human IgG1, kappa)
heavy: QVQLVESGGGVVQPGMSLRLSCAASGFDFSSYGMYWVRQAPGKGQEWVASIRYTGTEKHYADSVKGRFTISRDNSKNTLYLEMNSLRVEDTAVYYCAKNRAIFGVIPDDSDIRGQGTMVTVSSGGGGSQVQLVQSGAEVKKPGASVKVSCKASGYTFAGYYMYWVRQAPGQGLEWMGWINPDSGAPTYAQKFQGRVTMTRDTSISTAYMELSRLRSDDTAVYYCAREKIYYGSGNYYPSFDYWGQGTLVTVSSASTKGPSVFPLAPSSKSTSGGTAALGCLVKDYFPEPVTVSWNSGALTSGVHTFPAVLQSSGLYSLSSVVTVPSSSLGTQTYICNVNHKPSNTKVDKKVEPKSCDKTHTCPPCPAPEAAGAPSVFLFPPKPKDTLMISRTPEVTCVVVDVSHEDPEVKFNWYVDGVEVHNAKTKPREEQYNSTYRVVSVLTVLHQDWLNGKEYKCKVSNKALPAPIEKTISKAKGQPREPQVYTLPPSREEMTKNQVSLTCLVKGFYPSDIAVEWESNGQPENNYKTTPPVLDSDGSFFLYSKLTVDKSRWQQGNVFSCSVMHEALHNHYTQKSLSLSPGK
light: DIQLTQSPSFLSASVGDRVTITCRASQGISSYLAWYQQKPGKAPKLLIYAASTLQSGVPSRFSGSGSGTEFTLTISSLQPEDFATYYCQQLNNYPWTFGQGTKVEIKRTVAAPSVFIFPPSDEQLKSGTASVVCLLNNFYPREAKVQWKVDNALQSGNSQESVTEQDSKDSTYSLSSTLTLSKADYEKHKVYACEVTHQGLSSPVTKSFNRGEC
notes: VH of PR006246 (PD-L1) - GS_5 - heavy chain of CD40 IgG PR006511; human IgG1 L234A/L235A/G237A; also called PD-L1×CD40
- EC50 [1]: 1.46 nM
- Maximum MFI [1]: 7570 MFI
- EC50 [2]: 2.4 nM
- Maximum MFI [2]: 16400 MFI
- EC50, HEK293-hCD40-NFκB reporter, + CHO-K1 [3]: 0.234 nM
- EC50, HEK293-hCD40-NFκB reporter, + CHO-K1/hPD-L1 [3]: 0.0692 nM
- Maximum (RLU), HEK293-hCD40-NFκB reporter, + CHO-K1 [3]: 189000 RLU
- Maximum (RLU), HEK293-hCD40-NFκB reporter, + CHO-K1/hPD-L1 [3]: 271000 RLU
- EC50 [4]: 2.57 nM
- Maximum MFI [4]: 53000 MFI
- EC50 [5]: 0.714 nM
- Maximum MFI [5]: 4670 MFI
- EC50, Jurkat-NFAT-hPD1 reporter [6]: 0.162 nM
- Maximum (RLU), Jurkat-NFAT-hPD1 reporter [6]: 2910 RLU
- EC50 [7]: 1.12 nM
- Maximum MFI [7]: 19700 MFI
- EC50 [8]: 0.521 nM
- Maximum MFI [8]: 869 MFI

B2: PR007275 (bispecific antibody, human IgG1, kappa)
heavy: QVQLVESGGGVVQPGMSLRLSCAASGFDFSSYGMYWVRQAPGKGQEWVASIRYTGTEKHYADSVKGRFTISRDNSKNTLYLEMNSLRVEDTAVYYCAKNRALFGVIPDASDIRGQGTMVTVSSGGGGSQVQLVQSGAEVKKPGASVKVSCKASGYTFAGYYMYWVRQAPGQGLEWMGWINPDSGAPTYAQKFQGRVTMTRDTSISTAYMELSRLRSDDTAVYYCAREKIYYGSGNYYPSFDYWGQGTLVTVSSASTKGPSVFPLAPSSKSTSGGTAALGCLVKDYFPEPVTVSWNSGALTSGVHTFPAVLQSSGLYSLSSVVTVPSSSLGTQTYICNVNHKPSNTKVDKKVEPKSCDKTHTCPPCPAPEAAGAPSVFLFPPKPKDTLMISRTPEVTCVVVDVSHEDPEVKFNWYVDGVEVHNAKTKPREEQYNSTYRVVSVLTVLHQDWLNGKEYKCKVSNKALPAPIEKTISKAKGQPREPQVYTLPPSREEMTKNQVSLTCLVKGFYPSDIAVEWESNGQPENNYKTTPPVLDSDGSFFLYSKLTVDKSRWQQGNVFSCSVMHEALHNHYTQKSLSLSPGK
light: DIQLTQSPSFLSASVGDRVTITCRASQGISSYLAWYQQKPGKAPKLLIYAASTLQSGVPSRFSGSGSGTEFTLTISSLQPEDFATYYCQQLASYPWTFGQGTKVEIKRTVAAPSVFIFPPSDEQLKSGTASVVCLLNNFYPREAKVQWKVDNALQSGNSQESVTEQDSKDSTYSLSSTLTLSKADYEKHKVYACEVTHQGLSSPVTKSFNRGEC
notes: VH of PR006247 (PD-L1) - GS_5 - heavy chain of CD40 IgG PR006495; human IgG1 L234A/L235A/G237A; also called PD-L1×CD40
- EC50 [1]: 1.58 nM
- Maximum MFI [1]: 7650 MFI
- EC50 [2]: 2.57 nM
- Maximum MFI [2]: 14200 MFI
- EC50, HEK293-hCD40-NFκB reporter, + CHO-K1 [3]: 0.213 nM
- EC50, HEK293-hCD40-NFκB reporter, + CHO-K1/hPD-L1 [3]: 0.0558 nM
- Maximum (RLU), HEK293-hCD40-NFκB reporter, + CHO-K1 [3]: 231000 RLU
- Maximum (RLU), HEK293-hCD40-NFκB reporter, + CHO-K1/hPD-L1 [3]: 371000 RLU
- EC50 [4]: 4.12 nM
- Maximum MFI [4]: 66000 MFI
- EC50 [5]: 0.807 nM
- Maximum MFI [5]: 4620 MFI
- EC50, Jurkat-NFAT-hPD1 reporter [6]: 0.234 nM
- Maximum (RLU), Jurkat-NFAT-hPD1 reporter [6]: 2840 RLU
- EC50 [7]: 1.29 nM
- Maximum MFI [7]: 20000 MFI
- EC50 [8]: 0.764 nM
- Maximum MFI [8]: 959 MFI
